Laboratory results: publication PMC9485058, “Glycosylation of a key cubilin Asn residue results in reduced binding to albumin” (The Journal of Biological Chemistry, 2022)
Positions count from the first letter of the chain named. Names and notes keep the numbering of the source. Values joined by “and” are separate entries in the source; they are usually repeats but may differ in a detail not shown here. Identical values can stand only once.

B1: CUB6–8 (cubilin 6–8 domain), glycosylated, not treated with PNGaseF (domain or fragment)
chain: CLYDYTDNFGMLSSPNFPNNYPSNWECIYRITVGLNQQIALHFTDFTLEDYFGSQCVDFVEIRDGGYETSPLVGIYCGSVLPPTIISHSNKLWLKFKSDAALTAKGFSAYWDGSSTGCGGNLTTPTGVLTSPNYPMPYYHSSECYWRLEASHGSPFELEFQDFHLEHHPSCSLDYLAVFDGPTTNSRLIDKLCGDTTPAPIRSNKDVVLLKLRTDAGQQGRGFEINFRQRCDNVVIVNKTSGILESINYPNPYDKNQRCNWTIQATTGNTVNYTFLGFDVESYMNCSTDYVELYDGPQWMGRYCGNNMPPPGATTGSQLHVLFHTDGINSGEKGFKMQWFTHG
modifications: N-glycans as made in 293F cells
B2: rat serum albumin (RSA) (natural protein, UniProt P02770 25-608, looked up)
chain: EAHKSEIAHRFKDLGEQHFKGLVLIAFSQYLQKCPYEEHIKLVQEVTDFAKTCVADENAENCDKSIHTLFGDKLCAIPKLRDNYGELADCCAKQEPERNECFLQHKDDNPNLPPFQRPEAEAMCTSFQENPTSFLGHYLHEVARRHPYFYAPELLYYAEKYNEVLTQCCTESDKAACLTPKLDAVKEKALVAAVRQRMKCSSMQRFGERAFKAWAVARMSQRFPNAEFAEITKLATDVTKINKECCHGDLLECADDRAELAKYMCENQATISSKLQACCDKPVLQKSQCLAEIEHDNIPADLPSIAADFVEDKEVCKNYAEAKDVFLGTFLYEYSRRHPDYSVSLLLRLAKKYEATLEKCCAEGDPPACYGTVLAEFQPLVEEPKNLVKTNCELYEKLGEYGFQNAVLVRYTQKAPQVSTPTLVEAARNLGRVGTKCCTLPEAQRLPCVEDYLSAILNRLCVLHEKTPVSEKVTKCCSGSLVERRPCFSALTVDETYVPKEFKAETFTFHSDICTLPDKEKQIKKQTALAELVKHKPKATEDQLKTVMGDFAQFVDKCCKAADKDNCFATEGPNLVARSKEALA
modifications: in MST: Texas Red-X succinimidyl ester or Oregon Green 488-X succinimidyl ester conjugate, dye:protein molar ratio 1:1
notes: serum albumin, rat, UniprotKB P02770; Labelled with dye in MST; also called rat albumin; source: bought: Sigma
B3: PNGaseF-deglycosylated CUB7,8 (domain or fragment, rat, UniProt O70244 1165-1389, looked up)
chain: CGGNLTTPTGVLTSPNYPMPYYHSSECYWRLEASHGSPFELEFQDFHLEHHPSCSLDYLAVFDGPTTNSRLIDKLCGDTTPAPIRSNKDVVLLKLRTDAGQQGRGFEINFRQRCDNVVIVNKTSGILESINYPNPYDKNQRCNWTIQATTGNTVNYTFLGFDVESYMNCSTDYVELYDGPQWMGRYCGNNMPPPGATTGSQLHVLFHTDGINSGEKGFKMQWFTH
modifications: N-glycans removed with PNGaseF
notes: cubilin, rat, CUB7 (1165–1277) and CUB8 (1278–1389) of full length cubilin UniProtKB O70244; also called CUB7,8 after PNGaseF treatment (+); His tagged CUB7,8 domain; not shown: His6, C-terminal, kept
B4: CUB7,8-N1285P, not treated with PNGaseF (domain or fragment, rat, UniProt O70244 1165-1389, looked up)
chain: B3 chain with N121P
modifications: N-glycans as made in 293F cells (N1168, N1303, N1319 by MS, Table 2)
notes: also called CUB7,8 N1285P mutant; source: 293F cells, purified as the other cubilin proteins (Ni-NTA Superflow, gel filtration)

Tests used:
[1] = target: Albumin (Rattus norvegicus) (UniProt P02770); settings: cited from earlier work
rat serum albumin (RSA) [2] = target: B2; assay: MST; Monolith NT.115, standard capillaries, 25 °C, 67 mM NaPO4, 150 mM NaCl, 0.05% Tween 20, pH 7.4 + 1 mM CaCl2; albumin labelled with a fluorescent dye (1:1), cubilin domain unlabelled
[3] = target: RSA 20 mM glucose (RSA20G) (rat) (UniProt P02770); assay: as above
[4] = target: RSA 1 mM methylglyoxal (RSA1MGO) (rat) (UniProt P02770); assay: as above
[5] = target: RSA 5 mM methylglyoxal (RSA5MGO) (rat) (UniProt P02770); assay: as above
[6] = target: RSA 500 mM glucose (RSA500G) (rat) (UniProt P02770); assay: as above
[7] = target: RSA 200 mM glucose (RSA200G) (rat) (UniProt P02770); assay: as above
[8] = target: the molecule itself; assay: SEC-MALS; Agilent Infinity II HPLC with Wyatt DAWN HELEOS II and Optilab T-rEX, 25 °C, running buffer with 2% v/v glycerol; cubilin domains not treated with any glycosidase
rabbit albumin = target: T1, rabbit albumin (rabbit, UniProt P49065 25-608, fluorescent dye conjugate for MST (Texas Red-X or Oregon Green 488-X succinimidyl ester)); assay: MST; Monolith NT.115, standard capillaries, 25 °C, 67 mM NaPO4, 150 mM NaCl, 0.05% Tween 20, pH 7.4 + 1 mM CaCl2; albumin labelled with a fluorescent dye (1:1), cubilin domain unlabelled; settings: both partners purified
T1 construct: albumin, rabbit
T1 sequence (P49065 25-608): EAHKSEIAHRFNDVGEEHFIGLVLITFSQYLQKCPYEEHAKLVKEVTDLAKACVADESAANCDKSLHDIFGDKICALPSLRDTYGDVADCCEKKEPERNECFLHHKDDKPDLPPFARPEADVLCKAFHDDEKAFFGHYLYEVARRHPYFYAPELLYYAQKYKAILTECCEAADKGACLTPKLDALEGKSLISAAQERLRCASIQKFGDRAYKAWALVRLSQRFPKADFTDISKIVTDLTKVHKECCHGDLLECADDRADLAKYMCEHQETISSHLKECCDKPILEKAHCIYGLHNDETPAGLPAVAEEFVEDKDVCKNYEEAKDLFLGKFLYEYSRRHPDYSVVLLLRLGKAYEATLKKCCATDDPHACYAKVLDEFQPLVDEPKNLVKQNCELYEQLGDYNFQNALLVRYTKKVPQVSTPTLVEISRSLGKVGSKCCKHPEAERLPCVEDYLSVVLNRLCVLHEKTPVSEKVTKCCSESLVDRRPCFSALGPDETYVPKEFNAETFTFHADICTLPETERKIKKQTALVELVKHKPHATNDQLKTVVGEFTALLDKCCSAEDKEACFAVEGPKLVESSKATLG

bovine albumin = target: T2, bovine albumin (bovine, UniProt P02769 25-607, fluorescent dye conjugate for MST (Texas Red-X or Oregon Green 488-X succinimidyl ester)); assay: as above; settings: both partners purified
T2 construct: albumin, bovine
T2 sequence (P02769 25-607): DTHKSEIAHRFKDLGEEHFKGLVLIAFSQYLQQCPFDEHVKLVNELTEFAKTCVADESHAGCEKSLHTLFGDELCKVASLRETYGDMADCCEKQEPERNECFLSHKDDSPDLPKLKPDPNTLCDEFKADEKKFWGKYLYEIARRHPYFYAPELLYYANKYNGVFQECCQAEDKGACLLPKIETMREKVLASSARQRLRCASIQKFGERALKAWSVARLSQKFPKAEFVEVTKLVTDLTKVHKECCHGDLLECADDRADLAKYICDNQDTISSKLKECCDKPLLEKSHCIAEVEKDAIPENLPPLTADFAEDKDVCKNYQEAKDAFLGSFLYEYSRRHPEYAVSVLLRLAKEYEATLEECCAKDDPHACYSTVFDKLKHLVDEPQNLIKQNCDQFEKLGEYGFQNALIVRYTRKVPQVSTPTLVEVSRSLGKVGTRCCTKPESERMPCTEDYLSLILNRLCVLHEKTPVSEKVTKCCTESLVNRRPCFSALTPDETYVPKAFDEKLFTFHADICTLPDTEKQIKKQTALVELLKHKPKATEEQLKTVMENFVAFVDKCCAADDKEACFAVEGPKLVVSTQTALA

human albumin = target: T3, human albumin (human, UniProt P02768 25-609, fluorescent dye conjugate for MST (Texas Red-X or Oregon Green 488-X succinimidyl ester)); assay: as above; settings: both partners purified
T3 construct: albumin, human
T3 sequence (P02768 25-609): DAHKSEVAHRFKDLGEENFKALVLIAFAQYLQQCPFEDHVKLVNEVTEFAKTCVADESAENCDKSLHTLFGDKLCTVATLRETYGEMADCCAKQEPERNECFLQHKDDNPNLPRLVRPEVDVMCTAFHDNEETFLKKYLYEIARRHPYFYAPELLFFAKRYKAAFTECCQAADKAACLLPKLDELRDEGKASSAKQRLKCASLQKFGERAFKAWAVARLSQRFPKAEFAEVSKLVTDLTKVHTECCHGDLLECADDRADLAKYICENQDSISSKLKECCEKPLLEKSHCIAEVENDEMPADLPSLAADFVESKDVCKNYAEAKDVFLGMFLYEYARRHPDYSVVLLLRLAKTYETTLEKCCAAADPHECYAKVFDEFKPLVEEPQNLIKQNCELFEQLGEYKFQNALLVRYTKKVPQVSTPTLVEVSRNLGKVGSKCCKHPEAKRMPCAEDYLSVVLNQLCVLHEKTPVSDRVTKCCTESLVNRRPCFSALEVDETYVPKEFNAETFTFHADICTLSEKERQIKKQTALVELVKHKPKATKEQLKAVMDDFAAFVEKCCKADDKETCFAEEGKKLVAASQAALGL

rat serum albumin (RSA) [9] = target: B2; assay: MST; as a1 but at pH 6.0; albumin labelled
rat serum albumin (RSA) [10] = target: B2; assay: MST; as a1 but at pH 5.0 (buffer not told); albumin labelled
[11] = target: the molecule itself; assay: SEC-MALS; data not shown; CUB7,8N1285P

With Cubilin (from UniProt O70244) as the molecule, how does the Kd [1] read?
Its Kd is 0.63 µM.

For “CUB7,8 (cubilin 7,8 domain), glycosylated, not treated with PNGaseF (from UniProt O70244 1165-1389) (domain or fragment)”, which Kd (rat serum albumin (RSA) [2]) is on record?
The Kd was greater than 100 µM.

Which Kd (rat serum albumin (RSA) [2]) does the source give for “PNGaseF-deglycosylated CUB6–8 (domain or fragment)” here?
The Kd was 500 to 1000 µM.

What about the Kd (rat serum albumin (RSA) [2]; record 2) of the same molecule?
Its Kd is 0.5 to 1 µM and 1 µM.

And the Kd [3]?
Its Kd is 2000 µM.

What about the Kd [4] of the same molecule?
Its Kd is 28 µM.

What about the Kd [5] of the same molecule?
Its Kd is greater than 100 µM.

What about the Kd [6] of the same molecule?
The Kd was greater than 100 µM.

And the Kd [7]?
The Kd was 9.4 µM.

Which Kd (rat serum albumin (RSA) [2]; both partners purified) does the source give for B1 here?
Its Kd is greater than 100 µM.

With B2 as the molecule, how does the “stoichiometry N” value [8] read?
Its value is 2.

Which Kd (rabbit albumin) does the source give for B3 here?
The Kd was 0.9 to 1.4 µM.

And the Kd (rat serum albumin (RSA) [2])?
The Kd was 0.5 to 1.2 µM.

And the Kd (rat serum albumin (RSA) [2]; record 2)?
The Kd was 500 to 1000 µM.

And the Kd (bovine albumin)?
Its Kd is greater than 100 µM.

And the Kd (human albumin)?
The Kd was 0.95 to 1.5 µM.

What about the Kd (rat serum albumin (RSA) [9]) of the same molecule?
Its Kd is 1700 µM.

What about the Kd (rat serum albumin (RSA) [10]) of the same molecule?
The Kd was 1400 µM.

And the Kd [3]?
The Kd was 2500 µM.

What about the Kd [4] of the same molecule?
The Kd was 35 µM.

And the Kd [5]?
Its Kd is greater than 100 µM.

What about the Kd [6] of the same molecule?
The Kd was greater than 100 µM.

And the Kd [7]?
The Kd was 25.6 µM.

Which “stoichiometry N” value [11] does the source give for B4 here?
The value was 2.
